# Data: PMC3424247, “The Crystal Structures of the Tryparedoxin-Tryparedoxin Peroxidase Couple Unveil the Structural Determinants of Leishmania Detoxification Pathway” (PLoS Neglected Tropical Diseases, 2012)
# B1: cytosolic tryparedoxin from Leishmania major (enzyme, UniProt E9ADX4 1-145, looked up)
# chain: MSGVAKHLGEALKLRKQADTADMDSLSGKTVFFYFSASWCPPCRGFTPQLVEFYEKHHDSKNFEIILASWDEEEDDFNAYYAKMPWLSIPFANRNIVEALTKKYSVESIPTLIGLNADTGDTVTTRARHALTQDPMGEQFPWRDE
# notes: cytosolic tryparedoxin (TXN1) of Leishmania major, gene amplified from L. major DNA with primers that hold the start (CATATG) and the stop codon; residues 2-145 seen in the crystal; Cloned between NdeI and HindIII of pET28b; the tag is probably N-terminal and thrombin probably leaves a few vector residues (surmised); Monomer-dimer equilibrium in solution, mostly monomer; also called LmTXN; TXN; …
# How the values were obtained:
# [1] = molecular target: tryparedoxin-dependent peroxidase from Leishmania major (Leishmania major); test: native gel or EMSA; Novex 4-12% Tris-Glycine non-denaturing gels; LmTXNPx 0.5 mg/mL with H2O2 (300, 30, 3 mM) or DTT (50, 5, 1 mM)
# [2] = molecular target: cytosolic tryparedoxin from Leishmania major (Leishmania major) (UniProt E9ADX4); test: SPR; BIACORE X, CM5 chip; LmTXN immobilised by amine coupling (about 1000 RU), LmTXNPx flowed over (40 nM-4.0 µM); 298 K; HBS-P buffer (10 mM HEPES pH 7.4, 0.15 M NaCl, 0.005% P-20); 30 µL/min; Scatchard analysis of Req
# [3] = molecular target: cytosolic tryparedoxin from Leishmania major (Leishmania major) (UniProt E9ADX4); test: SPR; as a6 but HBS-P buffer + 1 mM dithiotreitol (reducing conditions); LmTXNPx 40 nM-5 µM; for the dissociation rate DTT was added after 2080 s to the complex formed in HBS-P
# [4] = molecular target: tryparedoxin-dependent peroxidase from Leishmania major (Leishmania major); test: crystal structure; LmTXNPx about 12 mg/mL with 50 mM DTT, 22-26% PEG3350, 100 mM Bis-tris propane pH 8.0, 0.2 M KSCN, 293 K; five molecules per asymmetric unit, decamer from two adjacent asymmetric units; 3.0 Å
# [5] = molecular target: cytosolic tryparedoxin from Leishmania major (Leishmania major) (UniProt E9ADX4); test: SPR; as a6 but HBS-P buffer + 30 mM H2O2 (oxidizing conditions); LmTXNPx 80 nM-10 µM
# [6] = molecular target: the molecule itself; test: crystal structure; LmTXN about 8 mg/mL, hanging drop, 293 K, 20-24% PEG 3350, 100 mM Tris-HCl pH 8.5, 50 mM MgCl2; one molecule per asymmetric unit, dimer by crystallographic two-fold; 1.8 Å
Molecule,stoichiometry N [1],Kd [2] [µM],koff [2] [s⁻¹],Kd [3] [µM],koff [3] [s⁻¹],stoichiometry N [4],Kd [5] [µM],koff [5] [s⁻¹],stoichiometry N [6]
tryparedoxin-dependent peroxidase from Leishmania major (enzyme),10,1.1,5e-05,> 20,0.009,10,> 20,> 0.1,–
B1,–,–,–,–,–,–,–,–,2
